In patent publication US20070054848A1, “Composition and method for nerve regeneration” (priority 2003, published 2007):

How the values were obtained:
nerve regeneration = assay: Similar experiments with modified amino acid agents (Example 2-8)
Method: Similar experiments were carried out using Pep5 in which alanine was added to the C terminus of the sequence (SEQ ID NO: 2), antibodies for the extracellular domain of p75, and p75 in which alanine was replaced with valine at amino acid 423 in positions 273-427 of SEQ ID NO: 4.

[1] = test system: RhoA complexed with Rho GDI; assay: In vitro nucleotide exchange assay; format: biochemical; conditions: high Mg2+ concentrations; 90 nM Dbl
Method: Lipid-modified RhoA was purified from yeast membranes as described (Forget, M. A., Desrosiers, R. R., Gingras, D. & Beliveau, R., Biochem. J. 361, 243-54(2002)). [^3H]GDP- or GDP-RhoA complexed with Rho GDI was obtained by first incubating GDP-RhoA with or without [^3H]GDP, followed by incubation with Rho GDI for 30 min, as described previously (Takahashi, K. et al., J. Biol. Chem. 272, 23371-23375 (1997)). The sample, subjected to gel filtration, was equilibrated with 20 mM Tris-HCl (pH 7.5) containing 5 mM MgCl2, 1 mM dithiothreitol and 0.1% CHAPS. The GDP dissociation and GTP binding assays were carried out by the filter binding method as described previously (Hart, M. J., Eva, A., Evans, T., Aaronson, S. A. & Cerione, R. A., Nature 354, 311-314 (1991)). In the [^3H]GDP dissociation assay, 50 nM of the complex was incubated for 20 min with various concentrations of GST-fused proteins in a reaction mixture (50 μl) containing 30 mM Tris-HCl (pH 7.5), 5 mM or 0.5 μM MgCl2, 1 (for low Mg) or 10 (for high Mg) mM EDTA, 0.1 mM GTP, 1 mM dithiothreitol, 0.12% CHAPS and 0.2 mg/ml bovine serum albumin. In the [^35S] GTPγS binding assay, the complex was incubated as described above except that 1 μM [^35S] GTPγS was used instead of 0.1 mM GTP. At the indicated time, an aliquot of the reaction sample was removed, and passed through nitrocellulose filters (IPVH 000, Millipore). […]

B1: p75 in which alanine was replaced with valine at amino acid 423: p75 with alanine replaced with valine at amino acid 423 in positions 273-427 of SEQ ID NO: 4 (protein, listed as Homo sapiens)
chain: KRWNSCKQNKQGANSRPVNQTPPPEGEKLHSDSGISVDSQSLHDQQPHTQTASGQALKGDGGLYSSLPPAKREEVEKLLNGSAGDTWRHLAGELGYQPEHIDSFTHEACPVRALLASWATQDSATLDALLAALRRIQRADLVESLCSESTVTSPV
Question: B1 was tested. Which nerve regeneration (nerve regeneration) did it give?
Answer: nerve regeneration was similarly observed

B2: p75 ICD: intracellular domain (ICD) of p75, GST-fused (protein)
chain: KRWNSCKQNKQGANSRPVNQTPPPEGEKLHSDSGISVDSQSLHDQQTHTQTASGQALKGDGNLYSSLPLTKREEVEKLLNGDTWRHLAGELGYQPEHIDSFTHEACPVRALLASWGAQDSATLDALLAALRRIQRADIVESLCSESTATSPV
modifications: left off: a dimerising Fc or GST
notes: intracellular domain (ICD) of p75, GST-fused
Question: B2 was tested. Which “Dbl stimulated dissociation of GDP from GDP-RhoA complexed with Rho GDI” value [1] did it give?
Answer: showed the inhibitory effect to the same extent as p75 HD
